These results are taken from patent US20150344570A1 (published 2015).

One test addresses T1, FcγRIIb (human, UniProt P31994 43-217).
T1 construct: extracellular domain; also called 2b; not shown: His tag at the C terminus
T1 sequence (looked up): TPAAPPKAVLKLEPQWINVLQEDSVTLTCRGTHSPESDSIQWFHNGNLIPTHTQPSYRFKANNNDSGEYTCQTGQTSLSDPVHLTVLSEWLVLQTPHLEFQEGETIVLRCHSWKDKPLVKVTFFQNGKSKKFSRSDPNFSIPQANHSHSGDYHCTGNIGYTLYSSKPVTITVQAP
Nature of the test: SPR (Biacore), antibody captured, FcγR as analyte; binding relative to GpH7-A5/GpH7-B3/GpL16-k0 = 100.

In test [1] the target is T2, FcγRIIa H (human, UniProt P12318 34-217).
T2 construct: extracellular domain; also called FcγRIIa type H; 2aH; not shown: His tag at the C terminus
T2 sequence (looked up): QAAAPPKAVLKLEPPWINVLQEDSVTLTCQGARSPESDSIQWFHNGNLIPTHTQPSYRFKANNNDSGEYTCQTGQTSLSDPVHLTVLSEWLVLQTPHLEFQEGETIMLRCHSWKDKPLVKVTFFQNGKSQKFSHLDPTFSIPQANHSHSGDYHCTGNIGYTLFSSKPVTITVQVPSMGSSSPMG
The test is described as above.

The target in test [2] is T2, FcγRIIa H. Nature of the test: SPR (Biacore); He/Con_2aH divided by He/Con_2b (FcγRIIa H over FcγRIIb).

B1: GpH7-A5/GpH7-B3 variant L234_05P/GpL16-k0 (antibody, human IgG1, kappa)
heavy 1: not shown
heavy 2: not shown
light: DIVMTQSPLSLPVTPGEPASISCQASESLVHSNRNTYLHWYLQKPGQSPQLLIYKVSNRFSGVPDRFSGSGSGTDFTLKISRVEAEDVGVYYCSQNTHVPPTFGQGTKVEIERTVAAPSVFIFPPSDEQLKSGTASVVCLLNNFYPREAKVQWKVDNALQSGNSQESVTEQDSKDSTYSLSSTLTLSKADYEKHKVYACEVTHQGLSSPVTKSFNRGEC
notes: Heterodimerized IgG1; mutation in the GpH7-B3 chain only; also called He Ab
Regarding B1, the He/Con_2b in the test with FcγRIIb is 72.9 % of control. Moreover, the He/Con_2aH with FcγRIIa H [1] is 93.5 % of control. The “He_2aH/2b (IIaH/IIb)” value with FcγRIIa H [2] amounted to 1.28 ratio.

B2: GpH7-A5/GpH7-B3 variant L234_19Q/GpL16-k0 (antibody, human IgG1, kappa)
heavy 1: not shown
heavy 2: not shown
light: B1 light
notes: as for B1
Turning to B2, the He/Con_2b in the test with FcγRIIb was 60.3 % of control. Further, the He/Con_2aH with FcγRIIa H [1] is 79.2 % of control. Further, the “He_2aH/2b (IIaH/IIb)” value with FcγRIIa H [2] stood at 1.31 ratio.

B3: GpH7-A5/GpH7-B3 variant L234_15Y/GpL16-k0 (antibody, human IgG1, kappa)
heavy 1: not shown
heavy 2: not shown
light: B1 light
notes: as for B1
With B3, the He/Con_2b in the test with FcγRIIb is 96.3 % of control. Further, the He/Con_2aH in the test with FcγRIIa H [1] is 120 % of control. In addition, the “He_2aH/2b (IIaH/IIb)” value with FcγRIIa H [2] worked out at 1.25 ratio.

B4: GpH7-A5/GpH7-B3 variant L235_18N/GpL16-k0 (antibody, human IgG1, kappa)
heavy 1: not shown
heavy 2: not shown
light: B1 light
notes: as for B1
In the case of B4, the He/Con_2b with FcγRIIb was 54.9 % of control. Further, the He/Con_2aH with FcγRIIa H [1] was 66.1 % of control. Moreover, the “He_2aH/2b (IIaH/IIb)” value with FcγRIIa H [2] turned out to be 1.2 ratio.

B5: GpH7-A5/GpH7-B3 variant L234_14T/GpL16-k0 (antibody, human IgG1, kappa)
heavy 1: not shown
heavy 2: not shown
light: B1 light
notes: as for B1
B5: the He/Con_2b with FcγRIIb was 62.5 % of control. The He/Con_2aH with FcγRIIa H [1] was 78.1 % of control. In addition, the “He_2aH/2b (IIaH/IIb)” value in the test with FcγRIIa H [2] is 1.25 ratio.

B6: GpH7-A5/GpH7-B3 variant L235_11K/GpL16-k0 (antibody, human IgG1, kappa)
heavy 1: not shown
heavy 2: not shown
light: B1 light
notes: as for B1
Consider B6, for which, in the test with FcγRIIb, the He/Con_2b was 6.3 % of control. Also, the He/Con_2aH with FcγRIIa H [1] was 22.7 % of control. In addition, the “He_2aH/2b (IIaH/IIb)” value with FcγRIIa H [2] was 3.61 ratio.

B7: GpH7-A5/GpH7-B3 variant L234_12R/GpL16-k0 (antibody, human IgG1, kappa)
heavy 1: not shown
heavy 2: not shown
light: B1 light
notes: as for B1
As for B7, in the test with FcγRIIb, the He/Con_2b was 18.9 % of control. In the test with FcγRIIa H [1], the He/Con_2aH was 47.7 % of control. The “He_2aH/2b (IIaH/IIb)” value with FcγRIIa H [2] was determined as 2.53 ratio.

B8: GpH7-A5/GpH7-B3 variant L234_13S/GpL16-k0 (antibody, human IgG1, kappa)
heavy 1: not shown
heavy 2: not shown
light: B1 light
notes: as for B1
Consider B8, for which the He/Con_2b with FcγRIIb was 59.3 % of control. Moreover, the He/Con_2aH with FcγRIIa H [1] was 80.4 % of control. Also, the “He_2aH/2b (IIaH/IIb)” value in the test with FcγRIIa H [2] is 1.36 ratio.

B9: GpH7-A5/GpH7-B3 variant L235_03V/GpL16-k0 (antibody, human IgG1, kappa)
heavy 1: not shown
heavy 2: not shown
light: B1 light
notes: as for B1
With B9, the He/Con_2b with FcγRIIb is 66.4 % of control. Moreover, in the test with FcγRIIa H [1], the He/Con_2aH is 85.3 % of control. Besides, the “He_2aH/2b (IIaH/IIb)” value in the test with FcγRIIa H [2] was determined as 1.28 ratio.

B10: GpH7-A5/GpH7-B3 variant L235_14T/GpL16-k0 (antibody, human IgG1, kappa)
heavy 1: not shown
heavy 2: not shown
light: B1 light
notes: as for B1
Take B10: the He/Con_2b with FcγRIIb was 46.8 % of control. For the same molecule, the He/Con_2aH in the test with FcγRIIa H [1] is 71.5 % of control. The “He_2aH/2b (IIaH/IIb)” value in the test with FcγRIIa H [2] came to 1.53 ratio.

B11: GpH7-A5/GpH7-B3 variant L235_13S/GpL16-k0 (antibody, human IgG1, kappa)
heavy 1: not shown
heavy 2: not shown
light: B1 light
notes: as for B1
In the case of B11, in the test with FcγRIIb, the He/Con_2b was 48.2 % of control. In addition, in the test with FcγRIIa H [1], the He/Con_2aH was 66.1 % of control. The “He_2aH/2b (IIaH/IIb)” value with FcγRIIa H [2] was 1.37 ratio.

B12: GpH7-A5/GpH7-B3 variant L235_01G/GpL16-k0 (antibody, human IgG1, kappa)
heavy 1: not shown
heavy 2: not shown
light: B1 light
notes: as for B1
On to B12, for which, in the test with FcγRIIb, the He/Con_2b was 35.4 % of control. In the test with FcγRIIa H [1], the He/Con_2aH is 54.1 % of control. The “He_2aH/2b (IIaH/IIb)” value with FcγRIIa H [2] turned out to be 1.53 ratio.

B13: GpH7-A5/GpH7-B3 variant L234_11K/GpL16-k0 (antibody, human IgG1, kappa)
heavy 1: not shown
heavy 2: not shown
light: B1 light
notes: as for B1
Regarding B13, the He/Con_2b with FcγRIIb was 16.2 % of control. In addition, in the test with FcγRIIa H [1], the He/Con_2aH is 40.8 % of control. Further, the “He_2aH/2b (IIaH/IIb)” value with FcγRIIa H [2] came to 2.52 ratio.

B14: GpH7-A5/GpH7-B3 variant L234_16H/GpL16-k0 (antibody, human IgG1, kappa)
heavy 1: not shown
heavy 2: not shown
light: B1 light
notes: as for B1
As for B14, the He/Con_2b with FcγRIIb is 59.4 % of control. Besides, the He/Con_2aH with FcγRIIa H [1] was 87.3 % of control. Further, the “He_2aH/2b (IIaH/IIb)” value with FcγRIIa H [2] came to 1.47 ratio.
